The supplement of paper PMC9170038

Tested on: MS2 coat protein
Test: apparent KD of MS2 coat protein; designed switch direction (-1 OFF switch, 1 ON switch): -1; higher = weaker reporter binding
Summary of the method: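 Apparent KD, taken as the median over clusters for each design, was obtained by curve-fitting normalised cluster fluorescence. Designed RNA switches had been transcribed on Illumina chips by stalled E. coli RNA polymerase and titrated with SNAP-549-labelled MS2 coat protein, doubling from 0.7 or 1.5 nM to 3 µM.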

[1] = input ligand: microRNA oligo, concentration not stated
[2] = Eterna round: R95, input ligand: FMN 200 uM
[3] = Eterna round: R95, input ligand: microRNA oligo, concentration not stated
[4] = Eterna round: R95, input ligand: none

Row | Sequence | apparent KD of MS2 coat protein (input ligand: FMN 200 uM) [nM] | apparent KD of MS2 coat protein [1] [nM] | apparent KD of MS2 coat protein (input ligand: none) [nM] | apparent KD of MS2 coat protein [2] [nM] | apparent KD of MS2 coat protein [3] [nM] | apparent KD of MS2 coat protein [4] [nM]
1 | UUCGUGCAGCUUUGCUGUACGCGUACAUGAGGAUCACCCAUGUAGGAUAUGGUACGCUUUGCGUGCUAGAAGGAUAUGGAGAGG [JL EXNG3 1.34] (Eterna round: R96, puzzle: Exclusion NG 3) | 62.9 | 28.7 | 37.6 |  |  | 
2 | GGCACACAUGAGGAUCACCCAUGUGAGGAUAUGUGGCGAUCGUCGAAAGACGAUAGCCACAGAAGGCACAGGCC [Eli x1 4.24] (Eterna round: R97, puzzle: Exclusion 1) | 21.4 |  | 17.8 |  |  | 
3 | CGGUGACGGGUGAGGAUAUCGUGUUCGAAAGAACGUGAGAAGGCACAUGAGGAUCACCCAUGUGAUCCUCAUCG [Omei Ex4B A31] (Eterna round: R97, puzzle: Brourd's mod of Exclusion 4) | 412 |  | 56.1 |  |  | 
4 | AAUUAAGCAAGCAGAUCCCACAUGAGGAUCACCCAUGUGCUCGUCUUAUAAGGUACUGUGACAAAAGUCACGGUACC [Mat - Sensor, turn-off var - Eli Mod - D73] (Eterna round: R97, puzzle: Sensor, turn-off variant 1) | 108 |  | 117 |  |  | 
5 | AAAUCGAGACGGAGAUCCGACAUGAGGAUCACCCAUGUCUCGUAAGCUUUUUGCUCGUCUUAUACUCCUCUGUUCUC [Elimod 50 - Jieux - Sensor, turn-off variant 1] (Eterna round: R97, puzzle: Sensor, turn-off variant 1) | 22.5 |  | 22.4 |  |  | 
6 | AGAGUGCUGCGAGGAUAUACAUGAGGAUCACCCAUGUGGUCCUGUGAGGGAAAACCUCACAGGAUGUAGAAGGCGCAGUACUCA [Mat - Exclusion NG 2 - Mod of JL - D47] (Eterna round: R96, puzzle: Exclusion NG 2) | 53.2 | 10.9 | 16.3 |  |  | 
7 | GUGGUUCCUGUCAGGAUAUACGCGGACCACCACCUGUAGAAGGGACAUGAGGAUCACCCAUGUUUUCCAAAGCG [Eternabot (L2) Solution 80] (Eterna round: R97, puzzle: Brourd's mod of Exclusion 4) | 13.2 |  | 13 |  |  | 
8 | UUUUAACAAGCGAGAUCCUACAUGAGGAUCACCCAUGUAGACCAUGGUUUCCAUGGUCUUUUUGCUCGUCUUGUGUG [jl TITIN mod 6] (Eterna round: R97, puzzle: Sensor, turn-off variant 1) | 22.5 |  | 23.3 |  |  | 
9 | AAUAAGUAUGUGAGGAUAUUGAGGAGGAGGAGGGACAAGAAGGCACAUGAGGAUCACCCAUGUAGGAAAGGACG [JR_BMEx4_Sub002] (Eterna round: R97, puzzle: Brourd's mod of Exclusion 4) | 46.9 |  | 28 |  |  | 
10 | GGUGCUGGCGCGUCGGUGUUGGUGCAAUAAGCUUGUGAAACAUGAGGAUCACCCAUGUCCUCAUAGGCUCGUCUUGU [salish99_TOv2_r2_088] (puzzle: Sensor v3, turn-off variant 2) |  |  |  | 16.4 | 544 | 14.4
11 | GAAAACGAUGAGGAUAUAUGAUAUCAAAGCAUCAUAGAAGGCAUCACAUGAGGAUCACCCAUGUGAUCUUCUUG [Mat - Exclusion 6 - JL Mod - D31] (Eterna round: R97, puzzle: Exclusion 6) | 164 |  | 26.6 |  |  | 
12 | GCAUGCUAUGUCAGGAUAUACCUGUGGAUACAUAGGUAGAAGGGACAUGAGGAUCACCCAUGUCCUAAUCAUGC [Fiskers BMX 4 - 24] (Eterna round: R96, puzzle: Brourd's mod of Exclusion 4) | 11.6 | 10 | 13.4 |  |  | 
13 | UCGACGUCGUCAGGAUAUAGUCUUAAUGUCAUGCUUUUGUUCGUACAUGAGGAUCACCCAUGUGGCUAGAAGGGACUAAAGAUU [JR_ExcNG2_Sub015] (Eterna round: R96, puzzle: Exclusion NG 2) | 12.3 | 10.1 | 15.8 |  |  | 
14 | GAAAAUUGGGCAGGAUAUCUAAUGAAAGAAACCGGAGAAGGGCCGGUGGCAAUUGCAGACAUGAGGAUCACCCAUGUAGUUGCA [Eternabot solution 42] (Eterna round: R96, puzzle: Exclusion NG 1) | 13.5 | 15.2 | 14.9 |  |  | 
15 | AAUAGUAAUAAGGAUAUCACUAGCCUCGGCUAGUGAGAAGGUAUUACAUGAGGAUCACCCAUGUGGUCAAUUAA [E6/4-A2] (Eterna round: R97, puzzle: Exclusion 6) | 1110 |  | 1130 |  |  | 
16 | UGAUCUAGCGGAGGAUAUACAUGAGGAUCACCCAUGUAGAUAAGUGUACCGUAGUGCACUAUUGUGUAGAAGGCCGCUAGAUCU [JL ENG2 3.64] (Eterna round: R96, puzzle: Exclusion NG 2) | 30.5 | 9.35 | 11.9 |  |  | 

Row | Sequence | apparent KD of MS2 coat protein (input ligand: FMN 200 uM) [nM] | apparent KD of MS2 coat protein [1] [nM] | apparent KD of MS2 coat protein (input ligand: none) [nM] | apparent KD of MS2 coat protein [2] [nM] | apparent KD of MS2 coat protein [3] [nM] | apparent KD of MS2 coat protein [4] [nM]
17 | AAGAAGAUAGGAUAUACGAGGAGAGGAGAGAGAAGGUGAGGACAUGAGGAUCACCCAUGUAGAAGGAUCAGGAA [JR_Exclu2_Sub064] (puzzle: Exclusion 2) |  |  |  | 81.3 | 88 | 89.9
18 | UUUUACAGAGGAUAUGCGAAUAAAUAAAACUUUUUUUUUUAACAUGAGGAUCACCCAUGUAGAAGGCUGAUUUU [Ex2 #25] (Eterna round: R97, puzzle: Exclusion 2) | 40 |  | 48.4 |  |  | 
19 | AGGUAACAUGAGGAUCACCCAUGUCAGGAUAUCAUAAAGAUUAGAUUAGAGAAGAGGUUGAGAAGGGACUAUAU [Excluse me! 17- Jieux - Exclusion 1] (puzzle: Exclusion 1) |  |  |  |  | 41.9 | 
20 | CCGGAAAUGCAGGAUAUCGUAUCGGAUACGAUACGAGAAGGGUAUACAUGAGGAUCACCCAUGUGUCCUACCGG [Fiskers Ex 6 - 49] (puzzle: Exclusion 6) |  |  |  |  | 18.3 | 
21 | ACGUGAUAUCUGUCGGUGGACAUGAGGAUCACCCAUGUAAGCUUUUUGCUUGUCUUAUAACCCGGUGACAGACCUUC [Inxeer] (puzzle: Sensor v3, turn-off variant 1) |  |  |  | 23.1 | 540 | 26.5
22 | UUGGUGUCAGGAUAUGCACAGGUCGCACAAAUUGCAGCCUAGCAGAAGGGACAUGAGGAUCACCCAUGUACUCU [EX4 B.21] (Eterna round: R97, puzzle: Exclusion 4) | 30 |  | 18.8 |  |  | 
23 | GGAGAGGUAGGAUAUCCACUUUAGAACAUGAGGAUCACCCAUGUAGAACCACAUGAAAUGGGAGAAGGACCAGGGA [AK-MS2ROC-r4-exclusion5-3] (Eterna round: R97, puzzle: Exclusion 5) | 65.3 |  | 56.1 |  |  | 
24 | ACUCGACAUGAGGAUCACCCAUGUGAGGAUAUGGCCUGUAUGGCGUGAGCUGGCUCAGUCAGAAGGCGCGUGGG [salish99_ex1_r4_047] (Eterna round: R97, puzzle: Exclusion 1) | 151 |  | 123 |  |  | 
25 | UCACAGGCUGUGGGUGGUGACAUGAGGAUCACCCAUGUUUUGCUCGUCUUGUGCCGGGCCCGGCGCCCGGGCCCGGC [-41.8, -69.2, A 10%] (Eterna round: R97, puzzle: Sensor, turn-off variant 1) | 575 |  | 1210 |  |  | 
26 | AAGUACCGUCACGAAAGUGAUGGUACAACAAGCAUGUAAACAUGAGGAUCACCCAUGUCCUCAUAUGCUCGUCUUAU [Sensor 3 - 63] (puzzle: Sensor v3, turn-off variant 2) |  |  |  | 480 | 32.5 | 533
27 | CUUAGUUGGUAAGGAUAUCCUACAUUGUUCUGGCCCGGGCAUGCUACAUGAGGAUCACCCAUGUGGGAGAAGGUGCGUCAUCGC [Design 18] (Eterna round: R96, puzzle: Exclusion NG 2) | 57.4 | 45.1 | 53.6 |  |  | 
28 | UUAUUACAAGCAAGAUCUCACAUGAGGAUCACCCAUGUGCUCGUCUUAAAAGGUACUGUGACGAAAGUCACGGUACC [Eli 100 v3] (Eterna round: R97, puzzle: Sensor, turn-off variant 1) | 16.4 |  | 14.9 |  |  | 
29 | UUUUUUUUGUUUUUUGUUUACAUGAGGAUCACCCAUGUGACGAGUUUAUGGGUGAACAAGCUUUUUGCUCGUCUUAU [Sensor v3 - Turn-off variant 1 - 5] (puzzle: Sensor v3, turn-off variant 1) |  |  |  | 52.4 | 17.8 | 140
30 | GGAUAUAACGUAGGAUAUCUGAGAAACAGACGAAGAGAAGGACGACAUGAGGAUCACCCAUGUGAUCUAUCAAUAUUAUACAUG [Prohibition 99 - Jieux - Exclusion NG 1] (Eterna round: R96, puzzle: Exclusion NG 1) | 412 | 330 | 351 |  |  | 
31 | AUUUAGUCAGGAUAUUAGUAGUAAAUGAAUAAAAUUAUUACUGAGAAGGGACAUGAGGAUCACCCAUGUGUCUA [Mat - Exclusion 4 - Eli Mod - D8] (Eterna round: R97, puzzle: Exclusion 4) | 60 |  | 28.5 |  |  | 
32 | CUUUUGUGAGGAUAUUGGUAGUAAAUAAAUAAAAUUACUACUGAGAAGGCACAUGAGGAUCACCCAUGUUCCUC [salish99_ex4_r3_070] (puzzle: Exclusion 4) |  |  |  |  | 30.7 | 
